{"source": "paper PMC6104826", "target": "HA-tagged cMyBP-C construct C6–C8 (human)", "sequence (Q14896 whole entry, the tested form may be a part)": "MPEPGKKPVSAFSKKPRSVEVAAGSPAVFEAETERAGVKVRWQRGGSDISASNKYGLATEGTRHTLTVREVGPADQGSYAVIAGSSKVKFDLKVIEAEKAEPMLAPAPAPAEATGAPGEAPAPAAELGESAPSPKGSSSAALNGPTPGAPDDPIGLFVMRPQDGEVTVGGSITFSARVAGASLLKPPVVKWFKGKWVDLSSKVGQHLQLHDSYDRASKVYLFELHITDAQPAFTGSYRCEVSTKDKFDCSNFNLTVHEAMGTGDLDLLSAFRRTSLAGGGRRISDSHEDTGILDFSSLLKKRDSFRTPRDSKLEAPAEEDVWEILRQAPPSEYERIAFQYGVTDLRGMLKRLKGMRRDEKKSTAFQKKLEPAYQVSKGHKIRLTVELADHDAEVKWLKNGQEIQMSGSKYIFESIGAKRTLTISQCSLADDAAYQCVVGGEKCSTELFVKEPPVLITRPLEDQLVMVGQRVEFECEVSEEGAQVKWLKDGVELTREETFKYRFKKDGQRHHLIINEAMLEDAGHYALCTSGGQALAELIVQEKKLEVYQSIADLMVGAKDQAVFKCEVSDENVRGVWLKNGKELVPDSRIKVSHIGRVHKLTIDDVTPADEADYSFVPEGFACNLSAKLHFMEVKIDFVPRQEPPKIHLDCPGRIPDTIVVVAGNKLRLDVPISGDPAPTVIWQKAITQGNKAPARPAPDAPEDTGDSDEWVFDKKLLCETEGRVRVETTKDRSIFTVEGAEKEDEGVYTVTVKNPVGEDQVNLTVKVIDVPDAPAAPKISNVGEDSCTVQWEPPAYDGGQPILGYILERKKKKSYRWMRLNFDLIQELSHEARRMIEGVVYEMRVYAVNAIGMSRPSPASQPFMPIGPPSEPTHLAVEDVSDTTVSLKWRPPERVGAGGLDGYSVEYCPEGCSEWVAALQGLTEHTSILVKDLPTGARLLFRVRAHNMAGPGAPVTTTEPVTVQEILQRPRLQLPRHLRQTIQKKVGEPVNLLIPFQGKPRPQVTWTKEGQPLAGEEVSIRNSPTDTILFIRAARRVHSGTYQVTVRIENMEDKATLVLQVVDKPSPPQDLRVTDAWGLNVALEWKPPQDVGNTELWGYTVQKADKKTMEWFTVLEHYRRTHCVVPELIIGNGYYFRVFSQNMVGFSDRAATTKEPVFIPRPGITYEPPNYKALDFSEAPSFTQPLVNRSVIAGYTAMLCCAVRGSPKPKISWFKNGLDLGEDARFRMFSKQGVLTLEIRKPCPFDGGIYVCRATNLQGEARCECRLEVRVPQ", "assay": "co-IP; HEK293 cells co-expressing cMyc-tagged BT (RyR) constructs with HA-tagged cMyBP-C constructs; HA–cMyBP-C immunoprecipitated with Ab^HA from solubilised cell lysates, co-precipitated BT detected by western blotting with Ab^cMyc; non-immune rabbit IgG as negative control; densitometry", "data": [{"substance": "BT4L (cMyc-tagged RyR2 residues 1–906) (from UniProt Q92736 1-906) (domain or fragment)", "values": [{"measurement": "fold signal against C8–C10", "result": 3, "unit": "fold"}]}]}
